Source: paper PMC7255614, “Strain-specific joint invasion and colonization by Lyme disease spirochetes is promoted by outer surface protein C” (PLoS Pathogens, 2020)

What was measured:
fibronectin [1] = target: T1, fibronectin (UniProt P02751 32-2477); test: ELISA; wells coated with 10 μg/ml purified fibronectin in 0.05 M Na2CO3 pH 9.0; 0.03125-2 μM GST or GST-tagged OspC variants, 1 hr at ambient temperature; goat anti-GST and HRP-conjugated anti-goat IgG; estimated KD from a fit of OD405; conditions: both partners purified
T1 sequence (P02751 32-2477): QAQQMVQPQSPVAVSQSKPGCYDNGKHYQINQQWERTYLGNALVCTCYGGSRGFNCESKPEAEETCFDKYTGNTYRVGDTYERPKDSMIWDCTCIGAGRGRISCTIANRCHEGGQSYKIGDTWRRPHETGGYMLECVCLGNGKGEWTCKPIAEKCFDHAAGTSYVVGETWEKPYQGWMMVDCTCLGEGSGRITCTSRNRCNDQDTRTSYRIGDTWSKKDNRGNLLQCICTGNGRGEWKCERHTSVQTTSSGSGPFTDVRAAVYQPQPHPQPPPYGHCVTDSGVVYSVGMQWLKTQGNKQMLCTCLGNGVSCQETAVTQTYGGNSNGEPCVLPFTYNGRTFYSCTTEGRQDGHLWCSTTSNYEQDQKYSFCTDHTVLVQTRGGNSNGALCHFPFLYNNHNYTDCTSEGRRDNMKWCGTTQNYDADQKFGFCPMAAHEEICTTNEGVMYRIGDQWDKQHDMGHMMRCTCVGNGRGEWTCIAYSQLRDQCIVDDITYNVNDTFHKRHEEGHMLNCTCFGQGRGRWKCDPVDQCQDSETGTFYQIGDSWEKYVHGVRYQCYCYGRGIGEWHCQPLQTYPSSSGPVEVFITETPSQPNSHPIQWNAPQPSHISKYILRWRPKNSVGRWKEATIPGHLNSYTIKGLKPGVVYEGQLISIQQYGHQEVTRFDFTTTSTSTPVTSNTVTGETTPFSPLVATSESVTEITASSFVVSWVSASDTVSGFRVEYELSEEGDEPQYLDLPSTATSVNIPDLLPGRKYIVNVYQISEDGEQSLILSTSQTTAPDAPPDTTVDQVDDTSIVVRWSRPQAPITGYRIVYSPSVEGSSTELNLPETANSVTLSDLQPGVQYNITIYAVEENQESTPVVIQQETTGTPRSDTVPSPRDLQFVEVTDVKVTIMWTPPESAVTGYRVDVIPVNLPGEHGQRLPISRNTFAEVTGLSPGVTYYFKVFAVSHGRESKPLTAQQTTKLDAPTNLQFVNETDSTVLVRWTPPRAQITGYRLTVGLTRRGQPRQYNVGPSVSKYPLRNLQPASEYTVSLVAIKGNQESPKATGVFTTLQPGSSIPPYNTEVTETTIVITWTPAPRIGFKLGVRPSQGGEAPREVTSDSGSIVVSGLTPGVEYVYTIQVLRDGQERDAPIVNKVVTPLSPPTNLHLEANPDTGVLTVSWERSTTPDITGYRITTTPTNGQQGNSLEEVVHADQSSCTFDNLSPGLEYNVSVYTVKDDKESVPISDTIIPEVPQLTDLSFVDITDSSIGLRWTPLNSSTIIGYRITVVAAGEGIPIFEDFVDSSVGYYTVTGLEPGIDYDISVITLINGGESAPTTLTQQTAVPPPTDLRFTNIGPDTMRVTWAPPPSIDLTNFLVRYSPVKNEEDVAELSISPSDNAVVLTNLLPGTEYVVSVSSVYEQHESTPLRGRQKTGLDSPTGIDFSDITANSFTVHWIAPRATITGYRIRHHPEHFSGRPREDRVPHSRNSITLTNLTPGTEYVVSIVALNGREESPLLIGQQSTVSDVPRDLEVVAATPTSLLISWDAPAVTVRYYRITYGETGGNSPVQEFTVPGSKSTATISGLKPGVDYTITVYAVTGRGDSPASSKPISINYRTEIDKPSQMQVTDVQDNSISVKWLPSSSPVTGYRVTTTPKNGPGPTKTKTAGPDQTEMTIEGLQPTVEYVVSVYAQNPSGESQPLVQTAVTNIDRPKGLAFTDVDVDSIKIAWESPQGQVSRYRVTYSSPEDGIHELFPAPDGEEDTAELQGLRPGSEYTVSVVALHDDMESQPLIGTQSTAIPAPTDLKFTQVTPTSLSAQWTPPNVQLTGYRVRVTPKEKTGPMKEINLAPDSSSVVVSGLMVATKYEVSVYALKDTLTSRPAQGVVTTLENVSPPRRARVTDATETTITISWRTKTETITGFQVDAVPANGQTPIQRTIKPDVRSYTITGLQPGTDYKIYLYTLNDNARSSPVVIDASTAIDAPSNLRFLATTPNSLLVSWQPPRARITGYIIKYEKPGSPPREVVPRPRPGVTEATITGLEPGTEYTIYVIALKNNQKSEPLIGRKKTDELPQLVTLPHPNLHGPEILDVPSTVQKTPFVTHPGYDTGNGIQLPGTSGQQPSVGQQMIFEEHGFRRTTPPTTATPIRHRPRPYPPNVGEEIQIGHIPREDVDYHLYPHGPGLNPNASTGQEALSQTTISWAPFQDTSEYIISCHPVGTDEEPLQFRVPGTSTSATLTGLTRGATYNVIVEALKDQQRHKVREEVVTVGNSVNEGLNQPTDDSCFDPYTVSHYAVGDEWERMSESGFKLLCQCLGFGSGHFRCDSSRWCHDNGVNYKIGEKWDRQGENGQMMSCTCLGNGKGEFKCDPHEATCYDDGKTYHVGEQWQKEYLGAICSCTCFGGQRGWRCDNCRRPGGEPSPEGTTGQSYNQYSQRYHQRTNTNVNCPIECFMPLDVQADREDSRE

fibronectin [2] = target: T1, fibronectin; test: SPR; Biacore 3000; fibronectin on a CM5 chip; 0-500 nM untagged OspC variants injected at 10 μl/min, 25°C; 1:1 Langmuir model; KD from the average koff divided by kon of each run; conditions: both partners purified

Binder	Kd (fibronectin [1])	Kd (fibronectin [2])	koff (fibronectin [2])	kon (fibronectin [2])
GST-OspC_(VS461) (natural protein, B. afzelii strain VS461, UniProt Q0SL36 19-212, looked up, Cloned into pGEX4T2 at BamHI and SalI; source: E. coli BL21(DE3), purified by glutathione chromatography) CNNSGKGGDSASTNPADESAKGPNLTEISKKITDSNAFVLAVKEVETLVLSIDELAKKAIGQKIDNNNGLAALNNQNGSLLAGAYAISTLITEKLSKLKNLEELKTEIAKAKKCSEEFTNKLKSGHADLGKQDATDDHAKAAILKTHATTDKGAKEFKDLFESVEGLLKAAQVALTNSVKELTSPVVAESPKKP	0.52 µM			
OspC_(VS461), untagged (natural protein, B. afzelii strain VS461, UniProt Q0SL36 19-212, looked up, OspC (outer surface protein C) of B. afzelii strain VS461, without GST tag; Probably the GST fusion with the tag removed) CNNSGKGGDSASTNPADESAKGPNLTEISKKITDSNAFVLAVKEVETLVLSIDELAKKAIGQKIDNNNGLAALNNQNGSLLAGAYAISTLITEKLSKLKNLEELKTEIAKAKKCSEEFTNKLKSGHADLGKQDATDDHAKAAILKTHATTDKGAKEFKDLFESVEGLLKAAQVALTNSVKELTSPVVAESPKKP		0.8 µM	0.09 s⁻¹	151000 M⁻¹ s⁻¹
GST-OspC_(B31-ECM)^- (natural protein, B. burgdorferi strain B31-A3, UniProt Q07337 19-210, looked up, Cloned into pGEX4T2 at BamHI and SalI; also called OspCECM^-; source: E. coli BL21(DE3), purified by glutathione chromatography) CNNSGKDGNTSANSADESVKGPNLTEISKKITDSNAVLLAVKEVEALLSSIDEIAAKAIGKKIHQNNGLDTENNHNGSLLAGAYAISTLIKQKLDGLMNEGLMEMIDAAMMCSETFTNKLKEKHTDLGKEGVTDADAKEAILKTNGTKTKGAEELGKLFESVEVLSKAAKEMLANSVKELTSPVVAESPKKP	2.14 µM			
GST-OspCB31 (natural protein, Cloned into pGEX4T2 at BamHI and SalI; also called wild type OspCB31; source: E. coli BL21(DE3), purified by glutathione chromatography) CNNSGKDGNTSANSADESVKGPNLTEISKKITDSNAVLLAVKEVEALLSSIDEIAAKAIGKKIHQNNGLDTENNHNGSLLAGAYAISTLIKQKLDGLKNEGLKEKIDAAKKCSETFTNKLKEKHTDLGKEGVTDADAKEAILKTNGTKTKGAEELGKLFESVEVLSKAAKEMLANSVKELTSPVVAESPKKP	3.46 µM			
OspCB31, untagged (natural protein, B. burgdorferi strain B31-A3, UniProt Q07337 19-210, looked up, OspC (outer surface protein C) of B. burgdorferi strain B31-A3, without GST tag; Probably the GST fusion with the tag removed) CNNSGKDGNTSANSADESVKGPNLTEISKKITDSNAVLLAVKEVEALLSSIDEIAAKAIGKKIHQNNGLDTENNHNGSLLAGAYAISTLIKQKLDGLKNEGLKEKIDAAKKCSETFTNKLKEKHTDLGKEGVTDADAKEAILKTNGTKTKGAEELGKLFESVEVLSKAAKEMLANSVKELTSPVVAESPKKP		9.21 µM	0.13 s⁻¹	19900 M⁻¹ s⁻¹
